As a reminder, the Kd is a measure of binding affinity in units of concentration. One may read the Ki as the dissociation constant of the complex between target and ligand, obtained from inhibition or displacement. The koff is the first-order rate constant of dissociation. Read a high koff as a short-lived complex. For orientation: kon means the rate constant with which the complex forms. As a reminder, the IC50 is the point on the concentration scale where inhibition reaches its midpoint. Lower therefore signals greater potency.

Values joined by “and” are separate entries in the source; they are usually repeats but may differ in a detail not shown here. Identical values can stand only once. Like-named read-outs stand apart in the source and are kept apart here.

The values below come from US20240024520A1, “AUTONOMOUS KNOB DOMAIN PEPTIDES” (UCB BIOPHARMA SRL, priority 2020, published 2024).

Experiment [1] addresses human complement component C5 (human), P01031.
Experiment [2] has the same target. The source holds these as a separate data set.
Experiment [3] shares this target. This is another data set of the same source.
The target is the same in experiment [4]. This is another data set of the same source.
Experiment [5] has the same target. Briefly: SPR multi-cycle kinetics.

Chain of human complement component C5 (human), P01031 (P01031 19-673 limits assumed, chain 1 of 2): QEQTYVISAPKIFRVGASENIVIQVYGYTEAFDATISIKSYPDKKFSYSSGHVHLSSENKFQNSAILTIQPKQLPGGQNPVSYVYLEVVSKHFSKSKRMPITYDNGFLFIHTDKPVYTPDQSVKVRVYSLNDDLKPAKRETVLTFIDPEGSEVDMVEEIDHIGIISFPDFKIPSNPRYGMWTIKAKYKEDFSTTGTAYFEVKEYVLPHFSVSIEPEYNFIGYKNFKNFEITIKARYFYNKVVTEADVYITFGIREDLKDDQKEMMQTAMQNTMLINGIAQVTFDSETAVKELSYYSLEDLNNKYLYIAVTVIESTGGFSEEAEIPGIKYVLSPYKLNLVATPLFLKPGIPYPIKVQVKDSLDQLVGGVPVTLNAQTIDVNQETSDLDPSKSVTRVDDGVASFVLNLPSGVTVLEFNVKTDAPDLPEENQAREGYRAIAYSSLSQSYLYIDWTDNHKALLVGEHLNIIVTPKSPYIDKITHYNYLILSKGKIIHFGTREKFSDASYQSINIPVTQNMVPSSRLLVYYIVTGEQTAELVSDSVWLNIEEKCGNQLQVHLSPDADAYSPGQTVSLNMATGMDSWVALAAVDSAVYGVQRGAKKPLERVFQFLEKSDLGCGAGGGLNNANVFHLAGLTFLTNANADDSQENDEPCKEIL
Chain of human complement component C5 (human), P01031 (P01031 678-1676 limits assumed, chain 2 of 2): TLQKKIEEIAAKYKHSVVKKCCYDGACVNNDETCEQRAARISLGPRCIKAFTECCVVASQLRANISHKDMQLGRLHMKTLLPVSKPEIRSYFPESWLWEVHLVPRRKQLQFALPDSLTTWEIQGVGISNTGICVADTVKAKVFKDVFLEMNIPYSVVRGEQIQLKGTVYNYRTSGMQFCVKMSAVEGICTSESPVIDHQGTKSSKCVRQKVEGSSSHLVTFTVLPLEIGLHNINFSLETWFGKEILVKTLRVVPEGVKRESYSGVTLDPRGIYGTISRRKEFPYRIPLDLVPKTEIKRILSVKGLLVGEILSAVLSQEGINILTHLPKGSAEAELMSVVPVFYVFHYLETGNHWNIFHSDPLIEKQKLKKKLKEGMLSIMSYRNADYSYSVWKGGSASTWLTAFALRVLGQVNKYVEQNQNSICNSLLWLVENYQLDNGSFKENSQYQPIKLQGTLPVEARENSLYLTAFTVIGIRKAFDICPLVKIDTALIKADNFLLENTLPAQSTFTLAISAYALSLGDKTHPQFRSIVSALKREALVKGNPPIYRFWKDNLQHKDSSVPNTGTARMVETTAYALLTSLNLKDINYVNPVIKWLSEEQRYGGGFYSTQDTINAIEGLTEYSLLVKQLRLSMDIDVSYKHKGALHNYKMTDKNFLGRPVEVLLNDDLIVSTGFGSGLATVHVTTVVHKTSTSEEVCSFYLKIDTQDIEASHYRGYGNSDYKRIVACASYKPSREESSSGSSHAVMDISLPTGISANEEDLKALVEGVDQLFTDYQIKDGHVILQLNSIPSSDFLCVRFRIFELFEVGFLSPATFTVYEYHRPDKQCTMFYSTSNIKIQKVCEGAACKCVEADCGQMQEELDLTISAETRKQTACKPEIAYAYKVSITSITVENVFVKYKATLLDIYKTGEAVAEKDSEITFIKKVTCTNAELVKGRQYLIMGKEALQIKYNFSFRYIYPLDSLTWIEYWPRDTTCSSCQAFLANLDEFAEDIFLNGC

B1: K149 knob domain peptide cleaved from the 645 Fab (peptide)
peptide: GSGSCPDGFSYRSWDDFCCPMVGRCLAPRNGSENLYFQ
modifications: not checked
As for B1, the Kd in experiment [1] amounted to 0.0365 µM. In addition, the Ki in experiment [2] is 0.0267 µM.

B2: K149 knob domain peptide, chemically synthesised, free energy method (Example 4) (peptide)
peptide: SCPDGFSYRSWDDFCCPMVGRCLAPRNGS
modifications: not checked
As to B2, in experiment [3], the Kd came to 0.00446 µM, the dissociation rate constant (koff) is 0.00685 s⁻¹ and the association rate constant (kon) came to 1.54e+06 M⁻¹ s⁻¹.

B3: K136 knob domain peptide cleaved from the 645 Fab (peptide)
peptide: GSTCPDNYREVDGCDPYDCCLTTWCTNSYCTRYIENLYFQ
modifications: not checked
For the molecule B3, the Kd in experiment [1] is 0.0064 µM. In experiment [2], the IC50 is 0.0449 µM and 0.0312 µM; the Ki was found to be 0.0189 µM.

B4: K149chemFE knob domain peptide (peptide)
peptide: SCPDGFSYRSWDDFCCPMVGRCLAPRN
modifications: not checked
In experiment [4], B4 returned a Kd of 0.00557 µM, a koff of 0.00448 s⁻¹ and an association rate constant (kon) of 861000 M⁻¹ s⁻¹.

B5: K149B knob domain peptide, chemically synthesised, site-directed disulphides (peptide)
peptide: SCPDGFSYRSWDDFCCPMVGRCLAPRN
modifications: not checked
In experiment [3], B5 showed a Kd of 0.246 µM, an off-rate constant (koff) of 0.00732 s⁻¹ and an on-rate (kon) of 29700 M⁻¹ s⁻¹. In addition, in experiment [4], the Kd was found to be 0.269 µM, the dissociation rate constant (koff) is 0.00417 s⁻¹ and the kon was found to be 15600 M⁻¹ s⁻¹. Besides, the fold lower affinity than K149chemSD-A in experiment [5] came out at 35 fold.
